Measurements: patent US20170152228A1, “SCREENING METHODS FOR THE BINDING AFFINITY OF CHEMICAL […] TO BIOLOGICAL MOLECULES AND NEDD4-1 […] THE SCREENING METHODS” (Northwestern University, published 2017)

Biological target: ubiquitin (Homo sapiens (Human), UniProt P0CG48)
Experiment: not stated how the value was obtained. It is named in the context of the fluorescence polarization assay.

B1: NEDD4-1 HECT domain (enzyme)
chain: GPLGSRDYKRKYEFFRRKLKKQNDIPNKFEMKLRRATVLEDSYRRIMGVKRADFLKARLWIEFDGEKGLDYGGVAREWFFLISKEMFNPYYGLFEYSATDNYTLQINPNSGLCNEDHLSYFKFIGRVAGMAVYHGKLLDGFFIRPFYKMMLHKPITLHDMESVDSEYYNSLRWILENDPTELDLRFIIDEELFGQTHQHELKNGGSEIVVTNKNKKEYIYLVIQWRFVNRIQKQMAAFKEGFFELIPQDLIKIFDENELELLMCGLGDVDVNDWREHTKYKNGYSANHQVIQWFWKAVLMMDSEKRIRLLQFVTGTSRVPMNGFAELYGSNGPQSFTVEQWGTPEKLPRAHTCFNRLDLPPYESFEELWDKLQMAIENTQGFDGVD
  Kd: 11 µM
